Experiment [1] concerns the target T1, cynomolgus monkey GITR at the cell surface (cynomolgus monkey).
T1 construct: whole, on cells; also called cyno GITR+ cells
As to the kind of experiment: flow cytometry, cyno GITR-transfected murine blastoma cells, 10,000-13.7 ng/ml. The method, then:
(§1) Concentration-dependent binding to GITR at the cell surface was analysed using flow cytometry.

Experiment [2] has as its target T1, cynomolgus monkey GITR at the cell …. The experiment can be described thus: cell-based or functional assay.
Experiment [3] addresses T2, human GITR at the cell surface (human, UniProt Q9Y5U5 26-241).
T2 sequence (looked up): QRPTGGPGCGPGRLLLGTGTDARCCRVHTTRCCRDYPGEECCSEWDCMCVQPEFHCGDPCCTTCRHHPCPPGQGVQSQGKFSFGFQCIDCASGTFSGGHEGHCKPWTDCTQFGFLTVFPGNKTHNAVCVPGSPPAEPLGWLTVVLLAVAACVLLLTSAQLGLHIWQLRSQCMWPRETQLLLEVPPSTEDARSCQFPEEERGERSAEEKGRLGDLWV
As to the kind of experiment: cell-based or functional assay.

In experiment [4] the target is T2, human GITR at the cell surface. As to the kind of experiment: flow cytometry on CHO-K1 human GITR+ cells; competitor: soluble human GITRL. (Flow cytometry measures light scatter and fluorescence of single cells or particles in a stream.)
In experiment [5] the target is T3, human GITR-Fc (human, UniProt Q9Y5U5 26-161).
T3 construct: Recombinant GITR-Fc; also called hGITR-Fc; hGITR; not shown: Fc part
T3 sequence (looked up): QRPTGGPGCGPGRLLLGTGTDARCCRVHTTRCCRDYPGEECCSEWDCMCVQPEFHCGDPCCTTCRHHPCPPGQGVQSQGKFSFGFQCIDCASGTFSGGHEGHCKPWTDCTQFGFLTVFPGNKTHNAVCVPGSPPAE
The experiment can be described thus: HTRF competition: unlabelled IgG1 titrated 0.003-100 µg/ml against terbium-labelled VH1/VL1 IgG on biotinylated human GITR-Fc with SA-XL665, 665/615 ratio. The method, then:
A competition HTRF assay was established to examine epitope competition against VH1/VL1 IgG by grafted and library-derived clones. The purified VH1/VL1 IgG was labelled with terbium using a labelling kit (CisBio) per the manufacturers instructions. The final reaction mix contained biotinylated human GITR-Fc, SA-XL665 (CisBio), terbium-labelled parental […], and competitor IgG of interest, prepared as described above, in a total reaction volume of 20 μl in 1× assay buffer [50 mM sodium phosphate, pH 7.5, 400 mM potassium fluoride, and 0.1% BSA (w/v)]. Reagents were added sequentially on a MiniTrak Liquid Handling Platform (Perkin-Elmer) into 384-well low-volume black plates (Nunc). Reactions proceeded for 1 h at room temperature, and plates were subsequently read on a plate reader with excitation at 340 nm and two emission readings at 615 nm (measuring input donor fluorescence from VH1-VL1-cryptate) and 665 nm (measuring output acceptor fluorescence from SAXL665). Readings were expressed as 665 nm/615 nm ratios.
To examine the competition of the library-derived clones with the unaltered, closest-germline grafted CDRs of VH1/VL1 IgG, an Homogeneous Time Resolved Fluorescence (HTRF) assay was established. This assay incorporated terbium-labelled VH1/VL1 IgG, Biotinylated hGITR-Fc and streptavidin-XL665, in solution-phase binding. […]
(In general: In TR-FRET formats the signal depends on donor and acceptor labels being close together.)

Experiment [6] has as its target T2, human GITR at the cell surface. The experiment can be described thus: flow cytometry, human GITR-transfected murine blastoma cells, 10,000-13.7 ng/ml. The method, then: as §1
Experiment [7] concerns the target T3, human GITR-Fc. As to the kind of experiment: SPR (Biacore), Fab over GITR-Fc captured on anti-human Fc, 37 C, 1:1 model. The method, then: (§2) For affinity estimation, anti-human IgG Fc antibody was amine coupled at pH 5 onto three flow cells (Fc 1 to Fc 3) of a Biacore CM5 chip. The level of anti-Fc antibody immobilised onto the chip was approximately 550 RU. Human and cyno GITR-Fc and irrelevant receptor-Fc proteins were then captured onto the anti-Fc antibodies (by injecting over the antibody surface until nearly/completely saturated) in order that 80-100 RU were captured. Fab monomers were then injected over the Fc proteins captured on the chip at 37° C. a flow rate of 50 μl/min for 120 seconds, followed by Biacore running buffer (HBS-EP) being flowed over the chip for 240 seconds at 50 μl/min. The chip was regenerated between cycles using 2×15 second injections of 10 mM Glycine pH 2. The concentrations of Fab samples tested were 400, 200, 100, 50, 25, 12.5, and 6.25 nM. A Biacore running buffer control (0 nM) was also included as a control.
(§3) Monomeric Fab fragments were generated and flowed in the mobile phase on human and cyno GITR-Fc coated biosensor chips, to derive 1:1 binding values.
For orientation: SPR reads the build-up and loss of mass on a sensor chip optically.

For experiment [8], the target named is T4, cynomolgus monkey GITR-Fc (cynomolgus monkey (Macaca fascicularis)).
T4 construct: also called cyno GITR-Fc; cGITR-Fc
The description is as above. The method, then: as §2, §3

Experiment [9] deals with T3, human GITR-Fc. The experiment can be described thus: ELISA of IgG1 proteins. The method, then: (§4) To coat Greiner Bio-One High bind ELISA plates, target proteins were diluted to 1 μg/ml in carbonate buffer and added at 100 μl per well, at 4° C., o/n. Coated plates were washed 3× with PBS pH7.4, blocked with 1% BSA in PBS (380 μl/well) for 1 hr at RT, then washed 3× with PBS-Tween 20 (PBST). GITR antibodies (100 μl/well; diluted in PBST) were then added and then incubated 1 hr at RT. Plates were then washed 3× with PBST and goat anti-human kappa chain-HRP added (100 μl/well) at RT, for 1 hr. Plates were then washed 3× with PBST and twice with PBS before the addition of 100 μl TMB per well. Reactions were stopped by adding 100 μl 2M H₂SO₄/well and OD was read on a plate reader at 450 nm. IgG binding analysis via ELISA on negatively charged biomolecular surfaces were performed as previously described (see Mouquet et al., 2010, Nature 467: 591-595).
To examine the influence of these mutations on immunogenicity and function, five further designer mutants (A6.1 to A6.5, see Table 4 for CDR sequences) were also submitted for Epibase analysis (Table 5). […] Cyno GITR binding was greatly diminished for all of clones A6.2 to A6.5.

The target of experiment [10] is T4, cynomolgus monkey GITR-Fc. The experiment can be described thus: SPR (Biacore), Fab over GITR-Fc captured on anti-human Fc. The method, then:
as §2, §3

Experiment [11] has as its target T3, human GITR-Fc. As to the kind of experiment: direct titration ELISA on coated human GITR-Fc, IgG1 0.001-1 µg/ml, OD 450 nm. The method, then: as §4
The 17 purified IgGs described above were then tested for binding to human and cyno GITR-Fc in direct titration ELISA format.

As a reminder, the Kd is the concentration at which binding is half-saturated. Usually koff stands for the first-order rate constant of dissociation. Usually kon stands for the rate constant with which the complex forms.

Numbering of substitutions follows the chain as printed.

B1: VH1/VL1 IgG1 (antibody, V domains shown)
VH: QVTLRESGPALVKPTQTLTLTCTFSGFSLSTSGMGVGWIRQPPGKALEWLAHIWWDDDKYYNPSLKSRLTISKDTSKNQVVLTMTNMDPVDTATYYCARTRRYFPFAYWGQGTLVTVSS
VL: EIVMTQSPATLSVSPGERATLSCKASQNVGTNVAWYQQKPGQAPRLLIYSASYRYSGIPARFSGSGSGTEFTLTISSLQSEDFAVYYCQQYNTDPLTFGGGTKVEIK
notes: Full-length human IgG1; also called hVH1/VL1; G-VH1/VL1
As for B1, the “concentration at maximum MFI” value in experiment [1] and in experiment [6] was about 1110 ng/mL each time. For the same molecule, in [2], the “EC50 of FcγRIIIa activation, Promega ADCC reporter assay, CHO-K1 target cells expressing cyno GITR” value stood at 160 nM. Also, the “EC50 of FcγRIIIa activation, Promega ADCC reporter assay, CHO-K1 target cells expressing human GITR” value in experiment [3] turned out to be 35.6 nM. Moreover, the “fold reduction of binding signal in the presence of 10 µg/ml soluble GITRL” value in [4] was over 10 fold. The “IC50 (read off the curve)” value in experiment [5] is about 1 µg/mL.

B2: VH1/VL1 Fab (Fab, V domains shown)
VH: B1 VH
VL: B1 VL
notes: also called VH1/VL1 Fab fragment
In [7], B2 yielded a Kd of 110 nM, a koff of 0.0051 s⁻¹ and a kon of 45000 M⁻¹ s⁻¹. Further, in experiment [8], the Kd was determined as 270 nM, the koff is 0.0061 s⁻¹ and the kon was 22000 M⁻¹ s⁻¹.

B3: A6.1 IgG1 (antibody, V domains shown)
VH: EVQLVESGGGLVQPGGSLRLSCAASGFSLSTSGYGVGWVRQAPGKGLEWLAHIWWDDDKYYVDSVKGRFTISRDNAKNSLYLQMNSLRAEDTAVYYCARTRQYFPFAYWGQGTLVTVSS
VL: EIVLTQSPATLSLSPGERATLSCRASQSVGSNLAWYQQKPGQAPRLLIYSASNRYTGIPARFSGSGSGTDFTLTISSLEPEDFAVYYCQQYSTDPLTFGGGTKVEIK
notes: Human IgG1, designer mutant of D-A6; built as m28; also called D-A6.1; Clone A6.1
On to B3, for which the binding result in experiment [9] is “binds”.

B4: D-A6 Fab (Fab, V domains shown)
VH: B3 VH
VL: B3 VL with N53Y
notes: v-domains built as m25; also called D-A6 Fab fragment
In experiment [7], B4 returned a Kd of 120 nM, a koff of 0.011 s⁻¹ and a kon of 92000 M⁻¹ s⁻¹. For the same molecule, in experiment [8], the affinity, expressed as Kd, was 57 nM; the koff stood at 0.0021 s⁻¹; the kon amounted to 37000 M⁻¹ s⁻¹. Besides, in [10], the “fold improved affinity against VH1/VL1 Fab” value is about 4 fold.

B5: A6.4 IgG1 (antibody, V domains shown)
VH: B3 VH with V36M, G37S
VL: B3 VL
notes: Human IgG1, designer mutant of D-A6; built as m28; also called Clone A6.4
Consider B5, for which the binding result in experiment [9] is “binds”.

B6: A6.3 IgG1 (antibody, V domains shown)
VH: B3 VH with G37S
VL: B3 VL
notes: Human IgG1, designer mutant of D-A6; built as m28; also called Clone A6.3
In the case of B6, the binding result in [9] is “binds”.

B7: A6.5 IgG1 (antibody, V domains shown)
VH: B3 VH with V36M
VL: B3 VL
notes: Human IgG1, designer mutant of D-A6; built as m28; also called Clone A6.5
For B7, in [9], the binding result was “binds”.

B8: A6.2 IgG1 (antibody, V domains shown)
VH: B3 VH
VL: B3 VL with D94N
notes: Human IgG1, designer mutant of D-A6; built as m28; also called Clone A6.2
In the case of B8, in experiment [9], the binding result was “binds”.

B9: MH IgG1 (Maximally Humanized designer clone) (antibody, V domains shown)
VH: B3 VH with V36M, G37S, L50V, D58E
VL: B3 VL with N53Y, Y55A
notes: Human IgG1, designer clone; also called Clone MH
For the molecule B9, the binding result in experiment [11] was “binds”.
